Laboratory results as given in patent publication US20220356230A1.

Biological target: SARS-CoV-2 Spike Protein (RBD)(R319-F541).mmH, unmodified (SARS-CoV-2)
Assay: Luminex, supernatant on bead-coupled RBD.mmH
Details: remark: other sources report otherwise

B1: mAb11006 (antibody, V domains shown)
VH: EVQLVESGGGLVQPGGSLRLSCAASGFIVSRNYMSWVRQAPGKGLEWVSVIYSGGSTFYADSVKGRFTISRHNSKNTLYLQMNSLKAEDTAVYYCARELRGYFDYWGQGTLVTVSS
VL: DIQLTQSPSFLSASVGDRVTITCWASQGISSYLAWYQQKPGKAPKLLIYAASTLQSGVPSRFSGSGSGTEFTLTISSLQPEDFATYYCQLLNSYPYTFGQGTKLEIK
In the case of B1, the Binding signal (MFI) is reported as 2040 MFI.
